Measurements as given in patent US9937235B2, “Lipidated peptides as anti-obesity agents” (USTAV ORGANICKE CHEMIE A BIOCHEMIE AKADEMIE VED CR, V.V.I, priority 2012, dated 2018).
Where no end group is shown, it is not given here. [ ]: non-standard residue; d: D form. The star is where a group is joined. Phe(F5) = N[C@@H](Cc1c(F)c(F)c(F)c(F)c1F)C(=O)O; 1Nal = N[C@@H](Cc1cccc2ccccc12)C(=O)O; Stearoyl = CCCCCCCCCCCCCCCCCC(=O)*; Palmitoyl = CCCCCCCCCCCCCCCC(=O)*; Myristoyl = CCCCCCCCCCCCCC(=O)*; PheCl2 = dichlorophenylalanine; Lauroyl = CCCCCCCCCCCC(=O)*; PheNO2 = nitrophenylalanine; Decanoyl = CCCCCCCCCC(=O)*; Nle = CCCC[C@H](N)C(=O)O; Octanoyl = CCCCCCCC(=O)*; Sar = CNCC(=O)O

B1: analog no. 34 (peptide)
peptide: SRAHQHS[Nle]ETRTPDINPAWYTGRGIRPVGRY-NH2
modifications: N-terminus assumed
SMILES: CCCC[C@H](NC(=O)[C@H](CO)NC(=O)[C@H](Cc1c[nH]cn1)NC(=O)[C@H](CCC(N)=O)NC(=O)[C@H](Cc1c[nH]cn1)NC(=O)[C@H](C)NC(=O)[C@H](CCCNC(=N)N)NC(=O)[C@@H](N)CO)C(=O)N[C@@H](CCC(=O)O)C(=O)N[C@H](C(=O)N[C@@H](CCCNC(=N)N)C(=O)N[C@H](C(=O)N1CCC[C@H]1C(=O)N[C@@H](CC(=O)O)C(=O)N[C@H](C(=O)N[C@@H](CC(N)=O)C(=O)N1CCC[C@H]1C(=O)N[C@@H](C)C(=O)N[C@@H](Cc1c[nH]c2ccccc12)C(=O)N[C@@H](Cc1ccc(O)cc1)C(=O)N[C@H](C(=O)NCC(=O)N[C@@H](CCCNC(=N)N)C(=O)NCC(=O)N[C@H](C(=O)N[C@@H](CCCNC(=N)N)C(=O)N1CCC[C@H]1C(=O)N[C@H](C(=O)NCC(=O)N[C@@H](CCCNC(=N)N)C(=O)N[C@@H](Cc1ccc(O)cc1)C(N)=O)C(C)C)[C@@H](C)CC)[C@@H](C)O)[C@@H](C)CC)[C@@H](C)O)[C@@H](C)O
notes: Tyr at position 31 in place of Phe
B2: analog no. 35 (peptide)
peptide: Palmitoyl-SRAHQHS[Nle]ETRTPDINPAWYTGRGIRPVGRY-NH2
SMILES: CCCCCCCCCCCCCCCC(=O)N[C@@H](CO)C(=O)N[C@@H](CCCNC(=N)N)C(=O)N[C@@H](C)C(=O)N[C@@H](Cc1c[nH]cn1)C(=O)N[C@@H](CCC(N)=O)C(=O)N[C@@H](Cc1c[nH]cn1)C(=O)N[C@@H](CO)C(=O)N[C@@H](CCCC)C(=O)N[C@@H](CCC(=O)O)C(=O)N[C@H](C(=O)N[C@@H](CCCNC(=N)N)C(=O)N[C@H](C(=O)N1CCC[C@H]1C(=O)N[C@@H](CC(=O)O)C(=O)N[C@H](C(=O)N[C@@H](CC(N)=O)C(=O)N1CCC[C@H]1C(=O)N[C@@H](C)C(=O)N[C@@H](Cc1c[nH]c2ccccc12)C(=O)N[C@@H](Cc1ccc(O)cc1)C(=O)N[C@H](C(=O)NCC(=O)N[C@@H](CCCNC(=N)N)C(=O)NCC(=O)N[C@H](C(=O)N[C@@H](CCCNC(=N)N)C(=O)N1CCC[C@H]1C(=O)N[C@H](C(=O)NCC(=O)N[C@@H](CCCNC(=N)N)C(=O)N[C@@H](Cc1ccc(O)cc1)C(N)=O)C(C)C)[C@@H](C)CC)[C@@H](C)O)[C@@H](C)CC)[C@@H](C)O)[C@@H](C)O
notes: as for B1
B3: analog no. 38 (peptide)
peptide: TPDINPAWYTGR[Sar]IRPVGRF-NH2
modifications: N-terminus assumed
SMILES: CC[C@H](C)[C@H](NC(=O)CN(C)C(=O)[C@H](CCCNC(=N)N)NC(=O)CNC(=O)[C@@H](NC(=O)[C@H](Cc1ccc(O)cc1)NC(=O)[C@H](Cc1c[nH]c2ccccc12)NC(=O)[C@H](C)NC(=O)[C@@H]1CCCN1C(=O)[C@H](CC(N)=O)NC(=O)[C@@H](NC(=O)[C@H](CC(=O)O)NC(=O)[C@@H]1CCCN1C(=O)[C@@H](N)[C@@H](C)O)[C@@H](C)CC)[C@@H](C)O)C(=O)N[C@@H](CCCNC(=N)N)C(=O)N1CCC[C@H]1C(=O)N[C@H](C(=O)NCC(=O)N[C@@H](CCCNC(=N)N)C(=O)N[C@@H](Cc1ccccc1)C(N)=O)C(C)C
B4: analog no. 39 (peptide)
peptide: Myristoyl-TPDINPAWYTGR[Sar]IRPVGRF-NH2
SMILES: CCCCCCCCCCCCCC(=O)N[C@H](C(=O)N1CCC[C@H]1C(=O)N[C@@H](CC(=O)O)C(=O)N[C@H](C(=O)N[C@@H](CC(N)=O)C(=O)N1CCC[C@H]1C(=O)N[C@@H](C)C(=O)N[C@@H](Cc1c[nH]c2ccccc12)C(=O)N[C@@H](Cc1ccc(O)cc1)C(=O)N[C@H](C(=O)NCC(=O)N[C@@H](CCCNC(=N)N)C(=O)N(C)CC(=O)N[C@H](C(=O)N[C@@H](CCCNC(=N)N)C(=O)N1CCC[C@H]1C(=O)N[C@H](C(=O)NCC(=O)N[C@@H](CCCNC(=N)N)C(=O)N[C@@H](Cc1ccccc1)C(N)=O)C(C)C)[C@@H](C)CC)[C@@H](C)O)[C@@H](C)CC)[C@@H](C)O

The binders below were run against T1, rat PrRP receptor in RC-4B/C cells (rat, UniProt Q64121 1-370) (assay: competition with 125I-rat PrRP31 on RC-4B/C cells).
T1 construct: whole, on cells; also called the rat receptor; GPR10
T1 sequence (looked up): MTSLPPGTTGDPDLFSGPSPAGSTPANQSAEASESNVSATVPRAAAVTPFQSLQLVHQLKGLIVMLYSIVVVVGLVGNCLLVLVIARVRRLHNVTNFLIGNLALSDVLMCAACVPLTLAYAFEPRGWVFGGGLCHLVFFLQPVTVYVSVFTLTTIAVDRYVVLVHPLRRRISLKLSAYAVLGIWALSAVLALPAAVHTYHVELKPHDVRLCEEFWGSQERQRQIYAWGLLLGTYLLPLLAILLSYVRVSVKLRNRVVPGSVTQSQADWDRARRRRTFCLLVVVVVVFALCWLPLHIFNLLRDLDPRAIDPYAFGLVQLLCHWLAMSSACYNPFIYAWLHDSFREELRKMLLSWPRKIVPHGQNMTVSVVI
Description: The rat pituitary cell line RC-4B/C (ATCC, Manassas, USA) was grown on 24-well plates which had their bottom coated with polyethyleneimine. The cells were grown to the optimal density of 300-450 thousand per well.
(§1) Plates were incubated for 60 minutes at room temperature. After incubation, the cells were solubilized in 0.1 mol/l solution of NaOH and the radioactivity bound to the cells was counted using a γ-counter. The experiments were performed in duplicate and repeated at least three times.
For evaluation of competitive binding experiments, the program Graph Pad Prism Software (San Diego, Calif., USA) was used. A method of nonlinear regression assuming one-site binding was used.

| Binder | Ki |
| --- | --- |
| SRAHQHS[Nle]ETRTPDINPAWYTGRGIRPVGRF-NH2 [analog no. 14] | 1.28 nM |
| SRAHQHS[Nle]ETRTPDINPAWYTGRGIRPVGR[1Nal]-NH2 [analog no. 21] | 102 nM |
| Myristoyl-SRAHQHS[Nle]ETRTPDINPAWYTGRGIRPVGR[1Nal]-NH2 [analog no. 22] | 3.96 nM |
| Palmitoyl-SRAHQHS[Nle]ETRTPDINPAWYTGRGIRPVGR[1Nal]-NH2 [analog no. 23] | 2.17 nM |
| B1 | 3.25 nM |
| B2 | 0.44 nM |
| Octanoyl-SRAHQHS[Nle]ETRTPDINPAWYTGRGIRPVGRF-NH2 [analog no. 15] | 0.98 nM |
| Decanoyl-SRAHQHS[Nle]ETRTPDINPAWYTGRGIRPVGRF-NH2 [analog no. 16] | 0.65 nM |
| Lauroyl-SRAHQHS[Nle]ETRTPDINPAWYTGRGIRPVGRF-NH2 [analog no. 17] | 0.39 nM |
| Myristoyl-SRAHQHS[Nle]ETRTPDINPAWYTGRGIRPVGRF-NH2 [analog no. 18] | 0.69 nM |
| Palmitoyl-SRAHQHS[Nle]ETRTPDINPAWYTGRGIRPVGRF-NH2 [analog no. 19] | 0.51 nM |
| Stearoyl-SRAHQHS[Nle]ETRTPDINPAWYTGRGIRPVGRF-NH2 [analog no. 20] | 0.96 nM |
| SRAHQHS[Nle]ETRTPDINPAWYTGRGIRPVGR[PheCl2]-NH2 [analog no. 24] | 3.84 nM |
| Myristoyl-SRAHQHS[Nle]ETRTPDINPAWYTGRGIRPVGR[PheCl2]-NH2 [analog no. 25] | 1.79 nM |
| Palmitoyl-SRAHQHS[Nle]ETRTPDINPAWYTGRGIRPVGR[PheCl2]-NH2 [analog no. 26] | 1.3 nM |
| SRAHQHS[Nle]ETRTPDINPAWYTGRGIRPVGR[PheNO2]-NH2 [analog no. 27] | 19.9 nM |
| Myristoyl-SRAHQHS[Nle]ETRTPDINPAWYTGRGIRPVGR[PheNO2]-NH2 [analog no. 28] | 1.97 nM |
| Palmitoyl-SRAHQHS[Nle]ETRTPDINPAWYTGRGIRPVGR[PheNO2]-NH2 [analog no. 29] | 0.58 nM |
| Myristoyl-SHQRPADTHWYPRG[Nle]FPTIGRITARNGEVSR (printed without a C-terminal amide) [analog no. 31] | 123 nM |
| SRAHQHS[Nle]ETRTPDINPAWYTGRGIRPVGR[Phe(F5)]-NH2 [analog no. 32] | 9.69 nM |
| Palmitoyl-SRAHQHS[Nle]ETRTPDINPAWYTGRGIRPVGR[Phe(F5)]-NH2 [analog no. 33] | 0.51 nM |
| [code f][code r]GVPRIGRGTYWAPNIDPT-NH2 [analog no. 36] | 5200 nM |
| B3 | 7.94 nM |
| B4 | 0.32 nM |

The binders below were run against T2, human PrRP receptor, GPR10, transfected in CHO cells (human, UniProt P49683 1-370) (assay: competition with 125I-human PrRP31 on CHO cells with transfected human GPR10).
T2 construct: whole, on cells; also called human GPR10 receptor; the human receptor GPR10 in CHO cells
T2 sequence (looked up): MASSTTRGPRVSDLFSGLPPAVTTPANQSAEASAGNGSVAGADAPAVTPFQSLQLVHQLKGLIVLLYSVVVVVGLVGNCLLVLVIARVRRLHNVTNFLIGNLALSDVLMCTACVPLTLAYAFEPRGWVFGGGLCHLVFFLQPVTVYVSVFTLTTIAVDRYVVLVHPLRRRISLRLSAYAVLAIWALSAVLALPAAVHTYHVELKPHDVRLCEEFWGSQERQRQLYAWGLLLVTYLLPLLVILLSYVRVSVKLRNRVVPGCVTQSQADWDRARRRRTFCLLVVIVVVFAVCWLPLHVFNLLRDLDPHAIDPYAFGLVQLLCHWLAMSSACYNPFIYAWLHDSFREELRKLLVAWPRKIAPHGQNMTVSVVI
Description: CHO cells with transfected human PrRP receptor, GPR10 (Perkin Elmer, USA) were grown on 24-well plates coated with polyethyleneimine. The cells were grown to the optimal density of 40-80 thousand cells per well.
as §1

| Binder | Ki |
| --- | --- |
| SRAHQHS[Nle]ETRTPDINPAWYTGRGIRPVGRF-NH2 [analog no. 14] | 1.92 nM |
| SRAHQHS[Nle]ETRTPDINPAWYTGRGIRPVGR[1Nal]-NH2 [analog no. 21] | 34.5 nM |
| Myristoyl-SRAHQHS[Nle]ETRTPDINPAWYTGRGIRPVGR[1Nal]-NH2 [analog no. 22] | 1.33 nM |
| Palmitoyl-SRAHQHS[Nle]ETRTPDINPAWYTGRGIRPVGR[1Nal]-NH2 [analog no. 23] | 4.27 nM |
| B1 | 2.02 nM |
| B2 | 1.57 nM |
| Octanoyl-SRAHQHS[Nle]ETRTPDINPAWYTGRGIRPVGRF-NH2 [analog no. 15] | 1.53 nM |
| Decanoyl-SRAHQHS[Nle]ETRTPDINPAWYTGRGIRPVGRF-NH2 [analog no. 16] | 1.46 nM |
| Lauroyl-SRAHQHS[Nle]ETRTPDINPAWYTGRGIRPVGRF-NH2 [analog no. 17] | 1.19 nM |
| Myristoyl-SRAHQHS[Nle]ETRTPDINPAWYTGRGIRPVGRF-NH2 [analog no. 18] | 0.71 nM |
| Palmitoyl-SRAHQHS[Nle]ETRTPDINPAWYTGRGIRPVGRF-NH2 [analog no. 19] | 3.03 nM |
| Stearoyl-SRAHQHS[Nle]ETRTPDINPAWYTGRGIRPVGRF-NH2 [analog no. 20] | 5.39 nM |
| SRAHQHS[Nle]ETRTPDINPAWYTGRGIRPVGR[PheCl2]-NH2 [analog no. 24] | 2.27 nM |
| Myristoyl-SRAHQHS[Nle]ETRTPDINPAWYTGRGIRPVGR[PheCl2]-NH2 [analog no. 25] | 0.95 nM |
| Palmitoyl-SRAHQHS[Nle]ETRTPDINPAWYTGRGIRPVGR[PheCl2]-NH2 [analog no. 26] | 1.05 nM |
| SRAHQHS[Nle]ETRTPDINPAWYTGRGIRPVGR[PheNO2]-NH2 [analog no. 27] | 4.8 nM |
| Myristoyl-SRAHQHS[Nle]ETRTPDINPAWYTGRGIRPVGR[PheNO2]-NH2 [analog no. 28] | 1.59 nM |
| Palmitoyl-SRAHQHS[Nle]ETRTPDINPAWYTGRGIRPVGR[PheNO2]-NH2 [analog no. 29] | 0.77 nM |
| Myristoyl-SHQRPADTHWYPRG[Nle]FPTIGRITARNGEVSR (printed without a C-terminal amide) [analog no. 31] | 262 nM |
| SRAHQHS[Nle]ETRTPDINPAWYTGRGIRPVGR[Phe(F5)]-NH2 [analog no. 32] | 8.59 nM |
| Palmitoyl-SRAHQHS[Nle]ETRTPDINPAWYTGRGIRPVGR[Phe(F5)]-NH2 [analog no. 33] | 1.92 nM |
| [code f][code r]GVPRIGRGTYWAPNIDPT-NH2 [analog no. 36] | 6290 nM |
| B3 | 4.51 nM |
| B4 | 3.12 nM |
